# Measurements as given in the supplement of paper PMC7877785.
# ± gives the uncertainty stated by the source.
# Test: self-splicing fitness, log relative to wild type (ln ratio); higher = more splicing; Tetrahymena group I intron in knt gene, E. coli kanamycin selection, DiMSum; sequences stand for … in CUCUCU…GGAGGGAAAAGUUAUCAGGCAUGCACCUGGUAGCUAGUCUUUAAACCAAUAGAUUGCAUCGGUUUAAAAGGCAAGACCGUCAAAUUGCGGGAAAGGGGUCAACAGCCGUUCAGUACCAAGUCUCAGGGGAAACUUUGAGAUGGCCUUGCAAAGGGUAUGGUAAUAAGCUGACGGACAUGGUCCUAACCACGCAGCCAAGUCCUAAGUCAACAGAUCUUCUGUUGAUAUGGAUGCAGUUCACAGACUAAAUGUCGGUCGGGGAAGAUGUAUUCUUCUCAUAAGAUAUAGUCGGACCUCUCCUUAAUGGGAGCUAGCGGAUGAAGUGAUGCAACACUGGAGCCGCUGGGAACUAAUUUGUAUGCGAAAGUAUAUUGAUUAGUUUUGGAGUACUCGUGGUCG
# Outline: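 Fitness was computed with DiMSum as the error-weighted combination of replicate fold changes, kanamycin versus none, each normalised to wild type. The library randomised all eight intron nucleotides of the P1ex region, with the intron placed in the knt kanamycin-resistance gene on pET-22b(+) in E. coli BL21(DE3). Six replicate transformations were grown overnight at 37°C or 30°C on LB agar with or without 25 μg/mL kanamycin, plus 100 μg/mL carbenicillin, 50 μM IPTG and 0.2% rhamnose. Pooled colonies were amplicon-sequenced on an Illumina HiSeq 2500.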
Sequence,self-splicing fitness (ln) (30 °C),self-splicing fitness (ln) (37 °C)
AGAAAGCAAUAUUACGGGAU,-1.14 ± 0.14,-1.04 ± 0.12
AGAAAGCAAUAUUACGGGCC,-1.66 ± 0.14,-1.04 ± 0.13
AGAAAGCAAUAUUACGGUGG,-3.11 ± 0.18,-2.32 ± 0.17
AGAAAGCAAUAUUACGUAUG,-2.58 ± 0.12,-3.05 ± 0.19
AGAAAGCAAUAUUACGUGGC,-3.67 ± 0.3,-1.14 ± 0.19
AGAAAGCAAUAUUACGUUAC,-3.26 ± 0.19,-1.89 ± 0.18
AGAAAGCAAUAUUACGUUGG,-3.2 ± 0.2,-0.323 ± 0.12
AGACAGCAAUAUUACGACCG,-1.4 ± 0.12,-0.429 ± 0.14
AGACAGCAAUAUUACGACGA,-1.29 ± 0.13,-0.547 ± 0.12
AGACAGCAAUAUUACGACGU,0.00817 ± 0.047,-0.185 ± 0.051
AGACAGCAAUAUUACGAGUC,-3.06 ± 0.19,-2.52 ± 0.22
AGACAGCAAUAUUACGAUGA,-2.02 ± 0.12,-0.531 ± 0.094
AGACAGCAAUAUUACGAUGG,-3.44 ± 0.16,-2.21 ± 0.16
AGACAGCAAUAUUACGCAAU,-2.41 ± 0.17,-0.644 ± 0.11
AGACAGCAAUAUUACGCCGU,-3.43 ± 0.21,-2.91 ± 0.29
AGACAGCAAUAUUACGCGAA,-2.45 ± 0.12,-0.878 ± 0.1
AGACAGCAAUAUUACGCUCC,-3.32 ± 0.48,-1.64 ± 0.19
AGACAGCAAUAUUACGUAGU,-3.27 ± 0.1,-1.88 ± 0.1
AGACAGCAAUAUUACGUAUA,-2.54 ± 0.14,-0.807 ± 0.13
AGACAGCAAUAUUACGUAUU,-2.58 ± 0.11,-1.4 ± 0.12
AGACAGCAAUAUUACGUCGG,-2.44 ± 0.15,-0.528 ± 0.15
AGACAGCAAUAUUACGUCUC,-2.87 ± 0.19,-3.53 ± 0.35
AGACAGCAAUAUUACGUGAU,-2.36 ± 0.075,-0.742 ± 0.087
AGACAGCAAUAUUACGUGCA,-0.683 ± 0.069,-0.00672 ± 0.079
AGACAGCAAUAUUACGUGGC,-3.01 ± 0.19,-2.12 ± 0.22

Sequence,self-splicing fitness (ln) (30 °C),self-splicing fitness (ln) (37 °C)
AGACAGCAAUAUUACGUUAA,-3.26 ± 0.14,-1.27 ± 0.087
AGACAGCAAUAUUACGUUAG,-3.69 ± 0.21,-2.14 ± 0.15
AGACAGCAAUAUUACGUUGU,-3.02 ± 0.13,-2.21 ± 0.12
AGAGAGCAAUAUUACGAAAA,–,-1.5 ± 0.5
AGAGAGCAAUAUUACGACAG,-3.47 ± 0.43,-2.52 ± 0.41
AGAGAGCAAUAUUACGAGUC,–,-2.23 ± 0.29
AGAGAGCAAUAUUACGAUCG,-1.94 ± 0.11,-0.822 ± 0.18
AGAGAGCAAUAUUACGCAAA,-2.1 ± 0.32,-2.69 ± 0.48
AGAGAGCAAUAUUACGCGAA,-3.26 ± 0.37,-2.82 ± 0.34
AGAGAGCAAUAUUACGCGCG,–,-1.3 ± 0.48
AGAGAGCAAUAUUACGGGCG,-3.07 ± 0.34,-2.3 ± 0.5
AGAGAGCAAUAUUACGGGCU,-3.62 ± 0.23,-1.48 ± 0.42
AGAGAGCAAUAUUACGGUUG,–,-1.45 ± 0.41
AGAGAGCAAUAUUACGUACU,-1.2 ± 0.13,-1 ± 0.15
AGAGAGCAAUAUUACGUCAU,–,-1.01 ± 0.16
AGAGAGCAAUAUUACGUGAU,-3.94 ± 0.18,-2.1 ± 0.23
AGAGAGCAAUAUUACGUUGA,-2.77 ± 0.23,-2.06 ± 0.26
AGAUAGCAAUAUUACGAAUA,-2.76 ± 0.49,-2.16 ± 0.48
AGAUAGCAAUAUUACGAAUU,-2.43 ± 0.15,-1.25 ± 0.16
AGAUAGCAAUAUUACGAGAC,-3.94 ± 0.23,-2.96 ± 0.22
AGAUAGCAAUAUUACGAGCA,-0.984 ± 0.1,-0.95 ± 0.11
AGAUAGCAAUAUUACGAUCA,-0.325 ± 0.089,-0.00339 ± 0.11
AGAUAGCAAUAUUACGCCAG,-3.6 ± 0.5,-1.78 ± 0.39
AGAUAGCAAUAUUACGCGAA,-3.1 ± 0.28,-0.447 ± 0.17
AGAUAGCAAUAUUACGCGCA,-0.594 ± 0.063,-0.129 ± 0.094

Sequence,self-splicing fitness (ln) (30 °C),self-splicing fitness (ln) (37 °C)
AGAUAGCAAUAUUACGCUAC,-2.97 ± 0.44,-2.56 ± 0.38
AGAUAGCAAUAUUACGCUCC,–,0.0911 ± 0.49
AGAUAGCAAUAUUACGCUGU,-3.36 ± 0.25,-3.22 ± 0.4
AGAUAGCAAUAUUACGGACA,-0.869 ± 0.15,-0.224 ± 0.16
AGAUAGCAAUAUUACGGAUU,-1.39 ± 0.1,0.228 ± 0.13
AGAUAGCAAUAUUACGGCAU,-0.734 ± 0.11,0.242 ± 0.12
AGAUAGCAAUAUUACGGCUA,0.0313 ± 0.1,0.162 ± 0.098
AGAUAGCAAUAUUACGGGAG,-2.43 ± 0.26,-1.95 ± 0.23
AGAUAGCAAUAUUACGGGUU,-2.78 ± 0.2,-2.29 ± 0.25
AGAUAGCAAUAUUACGGUUC,-1.77 ± 0.12,-0.791 ± 0.19
AGAUAGCAAUAUUACGUAAG,-1.31 ± 0.065,-1.44 ± 0.088
AGAUAGCAAUAUUACGUAAU,-1.52 ± 0.11,-0.657 ± 0.12
AGAUAGCAAUAUUACGUAUG,-2.57 ± 0.15,-2.3 ± 0.17
AGAUAGCAAUAUUACGUCAU,-1.89 ± 0.097,-0.716 ± 0.096
AGAUAGCAAUAUUACGUCUC,-3.01 ± 0.21,-3.05 ± 0.4
AGAUAGCAAUAUUACGUGAU,-1.92 ± 0.11,-0.886 ± 0.11
AGAUAGCAAUAUUACGUUAC,-2.05 ± 0.48,–
AGAUAGCAAUAUUACGUUAU,-3.23 ± 0.17,-3.55 ± 0.25
AGCAAGCAAUAUUACGAAAG,-2.4 ± 0.23,-1.36 ± 0.22
AGCAAGCAAUAUUACGAGGC,-4.52 ± 0.34,-2.51 ± 0.23
AGCAAGCAAUAUUACGAUAC,–,-1.72 ± 0.46
AGCAAGCAAUAUUACGCAUU,-2.57 ± 0.17,-1.45 ± 0.19
AGCAAGCAAUAUUACGGACC,0.36 ± 0.2,-0.517 ± 0.22
AGCAAGCAAUAUUACGGCAA,-0.272 ± 0.069,-0.342 ± 0.086
AGCAAGCAAUAUUACGGCAG,-0.65 ± 0.065,-0.357 ± 0.082

Sequence,self-splicing fitness (ln) (30 °C),self-splicing fitness (ln) (37 °C)
AGCAAGCAAUAUUACGUACC,-0.796 ± 0.078,0.398 ± 0.097
AGCAAGCAAUAUUACGUAGA,-2.83 ± 0.15,-2.44 ± 0.2
AGCAAGCAAUAUUACGUGCA,-0.675 ± 0.058,0.058 ± 0.077
AGCAAGCAAUAUUACGUGUC,-3.85 ± 0.23,-2.44 ± 0.17
AGCAAGCAAUAUUACGUGUG,-2.9 ± 0.1,-1.17 ± 0.081
AGCAAGCAAUAUUACGUUUG,-4.51 ± 0.22,-2.76 ± 0.18
AGCCAGCAAUAUUACGAACG,-3.24 ± 0.27,-2.97 ± 0.37
AGCCAGCAAUAUUACGAAGC,-1.65 ± 0.22,-1.96 ± 0.37
AGCCAGCAAUAUUACGACUU,-1.6 ± 0.1,-0.895 ± 0.12
AGCCAGCAAUAUUACGAGAU,-3.39 ± 0.18,-2.28 ± 0.2
AGCCAGCAAUAUUACGAUCA,–,-2.69 ± 0.32
AGCCAGCAAUAUUACGCAAG,-3.8 ± 0.34,-2.98 ± 0.4
AGCCAGCAAUAUUACGCAUA,-2.21 ± 0.15,-1.34 ± 0.16
AGCCAGCAAUAUUACGCCCC,-1.54 ± 0.24,0.277 ± 0.32
AGCCAGCAAUAUUACGCUAA,-2.53 ± 0.18,-0.465 ± 0.12
AGCCAGCAAUAUUACGCUAU,-1.55 ± 0.12,-0.833 ± 0.13
AGCCAGCAAUAUUACGCUCA,-1.83 ± 0.1,-1.64 ± 0.13
AGCCAGCAAUAUUACGGCAG,-1.01 ± 0.065,-1.18 ± 0.092
AGCCAGCAAUAUUACGGGAA,-2.59 ± 0.19,-0.667 ± 0.12
AGCCAGCAAUAUUACGGGUA,-1.59 ± 0.094,-1.08 ± 0.092
AGCCAGCAAUAUUACGGUAG,-2.6 ± 0.097,-0.58 ± 0.085
AGCCAGCAAUAUUACGGUAU,-2.57 ± 0.1,-1.14 ± 0.094
AGCCAGCAAUAUUACGGUCU,-3.08 ± 0.18,-2.51 ± 0.18
